These results are taken from patent US20140371080.

Data set [1] concerns the target EGFP-mOrange fusion (Aequorea victoria / Discosoma sp. (engineered)?) (UniProt P42212). The settings on record: fluorescence imaging of halted RNA clusters on Illumina GAIIx; 1xPBS, 5 mM MgCl2, 0.01% Tween-20, room temp; published 5.1 nM.
For data set [2], the system named is EGFP (Aequorea victoria (engineered)?). Conditions: CITED Shui et al. 2012; p76 states 5 and 15 nM by ITC and EMSA respectively; cited from earlier work.

As to GFP aptamer (canonical, GFPapt), the results for the Kd in data set [1] and in data set [2] were 6 nM and 5.1 nM, respectively.

Usually Kd stands for a measure of binding affinity in units of concentration.
